Test results reported in PMC6859904.
Read-outs that look alike come from different tables or passages of the source.

Measured: enzymatic_activity

VCP/p97: 3D (S13D, S282D, T761D) phosphomimetic
increases: phosphorylation at S13 | phosphorylation at S282 | phosphorylation at T761
